This assay addresses SARS-CoV-2 receptor-binding domain (RBD) (SARS-CoV-2, UniProt P0DTC2). The experiment in a line: BLI. The settings on record: both partners purified.

B1: CB6 (antibody, V domains shown)
VH: EVQLVESGGGLVQPGGSLRLSCAASGFTVSSNYMSWVRQAPGKGLEWVSVIYSGGSTFYADSVKGRFTISRDNSMNTLFLQMNSLRAEDTAVYYCARVLPMYGDYLDYWGQGTLVTVSS
VL: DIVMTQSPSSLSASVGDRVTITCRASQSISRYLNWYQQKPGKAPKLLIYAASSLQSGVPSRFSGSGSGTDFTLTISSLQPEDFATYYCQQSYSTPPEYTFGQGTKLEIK
For the molecule B1, the binding result is listed as “binds”.

For the origin of these results see publication PMC8564274 (Signal Transduction and Targeted Therapy, 2021).
